Two substances from patent US20140212406A1 can be followed below.

pKd: −log10 of the molar value.

Assay [1] has as its target fibrin. In words: binding of tPA variants to a solid-phase fibrin surface on PVC plates (3 independent experiments, 12 doses).
In assay [2] the target is N-methyl-D-aspartate receptor on primary cultured mouse cortical neurons (mouse) (UniProt P35438). In words: cell-based or functional assay.

The term pKd denotes the negative decadic logarithm of the Kd, by convention in mol/L. The low end stands for a high Kd, the high end for a low Kd. Turning to “rat tPA with complete deletion of its K2 domain (deletion of the amino acids 181 to 262), 6xHis-tagged (from UniProt P19637 33-212; P19637 295-559) (enzyme)”, the pKd in assay [1] was 9.09. Consider “rat wild type tPA (Rattus norvegicus), 6xHis-tagged (from UniProt P19637 33-559) (enzyme)”, for which, in assay [2], the neuronal death (LDH release, cortical neurons, 50 uM NMDA, 0.3 uM tPA) stood at 71% and the potentiation of NMDAR-mediated excitotoxicity (LDH release, cortical neurons, 50 uM NMDA, 0.3 uM tPA) amounted to 39%.
